How the values were obtained:
[1] = molecular target: ProG-TGT (Protein G fragment, amino acids 190-384, conjugated to a double-stranded DNA tension gauge tether with biotin) (UniProt P19909); test: micro-ring resonator; 200 ug/ml neutravidin, 0.05 uM ProG-TGT and 50 ug/ml Ecad-Fc flowed successively over a polymer-passivated surface presenting biotin; ProG-TGT held through biotin:neutravidin; film thickness read out
[2] = molecular target: Ecad-Fc (recombinant human epithelial cadherin fused with IgG-Fc)

surface density of adhered DLD-1 cells on the ProG-TGT (43 pN) surface with Ecad-Fc (control surface without Ecad-Fc: 8/mm^2) [2] | Substance | film thickness increase [1] [pm] | stoichiometry N (Ecad-Fc per ProG-TGT (molar ratio)) [1]
 | Ecad-Fc (recombinant human epithelial cadherin fused with IgG-Fc) (Fc fusion) | 237 | 0.87
386 /mm^2 | E-cadherin on DLD-1 cells (from UniProt P12830 155-882) (receptor) |  | 
